According to patent US20210087281A1 (AGOMAB THERAPEUTICS, published 2021):
Values belong to the binder of their own block, whether it stands above or below them.

Key:
[1] = molecular target: T1, native human MET on living cells (human, UniProt P08581 25-1390); assay: cell-based or functional assay
[2] = molecular target: T2, native mouse MET on living cells (mouse, UniProt P16056 25-1379); assay: cell-based or functional assay
[3] = molecular target: T1, native human MET on living cells; assay: cell-based or functional assay; remark: listed apart in the source
[4] = molecular target: T2, native mouse MET on living cells; assay: cell-based or functional assay; remark: listed apart in the source
[5] = molecular target: T1, native human MET on living cells; assay: cell-based or functional assay; remark: listed apart in the source
[6] = molecular target: T2, native mouse MET on living cells; assay: cell-based or functional assay; remark: listed apart in the source
[7] = molecular target: T1, native human MET on living cells; assay: cell-based or functional assay; remark: listed apart in the source
[8] = molecular target: T2, native mouse MET on living cells; assay: cell-based or functional assay; remark: listed apart in the source
[9] = molecular target: T1, native human MET on living cells; assay: flow cytometry, A549 cells
Procedure: (§1) We also analysed whether chimeric anti-MET antibodies bound to native human and mouse MET in living cells. […] Antibody binding to cells was analysed by flow cytometry using phycoerythrin-conjugated anti-human IgG1 antibodies (eBioscience) and a CyAn ADP analyser (Beckman Coulter). As a positive control for human MET binding, we used a commercial mouse anti-human MET antibody (R&D Systems) and phycoerythrin-conjugated anti-mouse IgG1 antibodies (eBioscience).
(§2) As a positive control for mouse MET binding we used a commercial goat anti-mouse MET antibody (R&D Systems) and phycoerythrin-conjugated anti-goat IgG1 antibodies (eBioscience). […] Consistent with the data obtained in ELISA, maximal binding (EMAX) varied depending on antibody, but was similar in human and mouse cells.

[10] = molecular target: T2, native mouse MET on living cells; assay: flow cytometry, MLP29 cells
Procedure: as §1, §2

[11] = molecular target: human MET ECD mutant A (mutations 1, 2, 3) (human) (UniProt P08581); assay: ELISA, MET ECD in solid phase, mAb 0-50 nM
[12] = molecular target: human MET ECD mutant D (mutations 1, 2) (human) (UniProt P08581); assay: ELISA, MET ECD in solid phase, mAb 0-50 nM
[13] = molecular target: human MET ECD mutant E (mutations 2, 3, 4) (human) (UniProt P08581); assay: ELISA, MET ECD in solid phase, mAb 0-50 nM
[14] = molecular target: human MET ECD mutant H (mutations 2, 4) (human) (UniProt P08581); assay: ELISA, MET ECD in solid phase, mAb 0-50 nM
[15] = molecular target: T3, human MET ECD (human, UniProt P08581 25-932); assay: ELISA, MET ECD in solid phase, mAb 0-20 nM
T3 construct: range 1-932; recombinant ECD made by the applicants; the stated range begins at residue 1, so it includes the signal peptide of the entry; also called hMET; hMET ECD
Procedure: (§3) Production (by transient transfection of mammalian cells) and purification (by protein A affinity chromatography) of the resulting chimeric llama-human IgG1 molecules was outsourced to U-protein Express. Binding of chimeric mAbs to MET was determined by ELISA using hMET or mMET ECD in solid phase and increasing concentrations of antibodies (0-20 nM) in solution. […] Binding capacity (EMAX) varied from antibody to antibody, possibly due to partial epitope exposure in the immobilized antigen, but was similar in the human and mouse setting.

[16] = molecular target: T4, mouse MET ECD (mouse, UniProt P16056 25-931); assay: ELISA, MET ECD in solid phase, mAb 0-20 nM
T4 construct: range 1-931; recombinant ECD made by the applicants; the stated range begins at residue 1; also called mMET; mMET ECD
Procedure: as §3

[17] = molecular target: T3, human MET ECD; assay: ELISA, MET ECD in solid phase, mAb 0-50 nM
Procedure: Using human MET as a template, we mutagenized each of these residues in different permutations, generating a series of MET mutants that are fully human except for specific residues, which are llama. Next, we tested the affinity of selected SEMA-binding mAbs (71D6, 71C3, 71D4, 71A3, 71G2) and PSI-binding mAbs (76H10 and 71G3) for these MET mutants by ELISA. To this end, the various MET proteins were immobilized in solid phase (100 ng/well in a 96-well plate) and then exposed to increasing concentrations of antibodies (0-50 nM) solution. […] Wild-type human MET was used as positive control.
TABLE 18 The epitopes of MET responsible for agonistic antibody binding represent residues conserved among H. sapiens, M. musculus, R. norvegicus, M. fascicularis but not among the same species and L. glama. The relevance of residues conserved among human, mouse, rat, cynomolgus monkey but not llama MET for binding to agonistic mAbs was tested by ELISA. Wild-type (WT) or mutant (MT) human MET ECD was immobilized in solid phase and exposed to increasing concentrations of mAbs in solution. […] All binding values were normalized to the WT protein and are expressed as % binding (EMAX) compared to WT MET.

[18] = molecular target: T5, human MET-Fc (R&D Systems) (human, UniProt P08581 25-932); assay: competition ELISA, hMET-Fc in solid phase, competitor 0.3 nM biotinylated hHGF
T5 construct: extracellular domain; bought chimeric protein; also called hMET; not shown: Fc portion of human IgG1
Procedure: (§4) To investigate along this line, we tested the competition between mAbs and HGF by ELISA. Recombinant human and mouse HGF (R&D Systems) were biotinylated at the N-terminus using NHS-LC-biotin (Thermo Scientific). MET-Fc protein, either human or mouse (R&D Systems), was immobilized in solid phase and then exposed to 0.3 nM biotinylated HGF, either human or mouse, in the presence of increasing concentrations of antibodies (0-120 nM).
(§5) A MET-Fc chimeric protein (either human or mouse) was immobilized in solid phase and exposed to a fixed concentration of biotinylated HGF (either human or mouse), in the presence of increasing concentrations of antibodies. […] Antibody-HGF competition is expressed as IC₅₀ (the concentration that achieves 50% competition) and IMAX (the maximum % competition reached at saturation).

[19] = molecular target: T6, mouse MET-Fc (R&D Systems) (mouse, UniProt P16056 25-929, limits assumed); assay: competition ELISA, mMET-Fc in solid phase, competitor 0.3 nM biotinylated mHGF
T6 construct: bought chimeric protein; also called mMET; not shown: Fc part
Procedure: as §4, §5

T3 sequence (P08581 25-932 limits assumed, form in doubt): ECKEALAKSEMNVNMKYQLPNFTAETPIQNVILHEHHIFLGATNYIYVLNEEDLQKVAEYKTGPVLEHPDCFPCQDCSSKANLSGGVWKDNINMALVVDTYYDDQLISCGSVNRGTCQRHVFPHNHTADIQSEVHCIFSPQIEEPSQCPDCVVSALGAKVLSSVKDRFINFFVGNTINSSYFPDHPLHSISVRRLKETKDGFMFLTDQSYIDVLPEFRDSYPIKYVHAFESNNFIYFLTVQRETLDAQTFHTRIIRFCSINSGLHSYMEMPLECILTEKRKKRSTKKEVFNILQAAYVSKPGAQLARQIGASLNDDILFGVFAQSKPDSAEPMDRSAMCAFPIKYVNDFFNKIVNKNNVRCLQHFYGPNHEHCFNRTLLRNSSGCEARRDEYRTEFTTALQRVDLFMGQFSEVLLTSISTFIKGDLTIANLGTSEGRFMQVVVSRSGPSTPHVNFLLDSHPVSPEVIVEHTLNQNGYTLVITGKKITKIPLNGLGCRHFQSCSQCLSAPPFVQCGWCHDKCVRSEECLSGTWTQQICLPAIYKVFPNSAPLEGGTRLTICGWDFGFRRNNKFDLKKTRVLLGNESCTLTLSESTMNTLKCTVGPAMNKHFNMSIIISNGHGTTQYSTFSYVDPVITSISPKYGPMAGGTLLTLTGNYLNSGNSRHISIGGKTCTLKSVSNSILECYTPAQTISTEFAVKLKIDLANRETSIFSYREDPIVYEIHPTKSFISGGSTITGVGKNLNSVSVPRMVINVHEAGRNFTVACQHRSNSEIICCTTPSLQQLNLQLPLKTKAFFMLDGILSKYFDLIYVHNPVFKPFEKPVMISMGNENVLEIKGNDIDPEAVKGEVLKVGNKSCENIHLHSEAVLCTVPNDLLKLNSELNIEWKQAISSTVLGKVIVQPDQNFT
T5 sequence (P08581 25-932): as the sequence (P08581 25-932 limits assumed, form in doubt) above
T1 sequence (P08581 25-1390): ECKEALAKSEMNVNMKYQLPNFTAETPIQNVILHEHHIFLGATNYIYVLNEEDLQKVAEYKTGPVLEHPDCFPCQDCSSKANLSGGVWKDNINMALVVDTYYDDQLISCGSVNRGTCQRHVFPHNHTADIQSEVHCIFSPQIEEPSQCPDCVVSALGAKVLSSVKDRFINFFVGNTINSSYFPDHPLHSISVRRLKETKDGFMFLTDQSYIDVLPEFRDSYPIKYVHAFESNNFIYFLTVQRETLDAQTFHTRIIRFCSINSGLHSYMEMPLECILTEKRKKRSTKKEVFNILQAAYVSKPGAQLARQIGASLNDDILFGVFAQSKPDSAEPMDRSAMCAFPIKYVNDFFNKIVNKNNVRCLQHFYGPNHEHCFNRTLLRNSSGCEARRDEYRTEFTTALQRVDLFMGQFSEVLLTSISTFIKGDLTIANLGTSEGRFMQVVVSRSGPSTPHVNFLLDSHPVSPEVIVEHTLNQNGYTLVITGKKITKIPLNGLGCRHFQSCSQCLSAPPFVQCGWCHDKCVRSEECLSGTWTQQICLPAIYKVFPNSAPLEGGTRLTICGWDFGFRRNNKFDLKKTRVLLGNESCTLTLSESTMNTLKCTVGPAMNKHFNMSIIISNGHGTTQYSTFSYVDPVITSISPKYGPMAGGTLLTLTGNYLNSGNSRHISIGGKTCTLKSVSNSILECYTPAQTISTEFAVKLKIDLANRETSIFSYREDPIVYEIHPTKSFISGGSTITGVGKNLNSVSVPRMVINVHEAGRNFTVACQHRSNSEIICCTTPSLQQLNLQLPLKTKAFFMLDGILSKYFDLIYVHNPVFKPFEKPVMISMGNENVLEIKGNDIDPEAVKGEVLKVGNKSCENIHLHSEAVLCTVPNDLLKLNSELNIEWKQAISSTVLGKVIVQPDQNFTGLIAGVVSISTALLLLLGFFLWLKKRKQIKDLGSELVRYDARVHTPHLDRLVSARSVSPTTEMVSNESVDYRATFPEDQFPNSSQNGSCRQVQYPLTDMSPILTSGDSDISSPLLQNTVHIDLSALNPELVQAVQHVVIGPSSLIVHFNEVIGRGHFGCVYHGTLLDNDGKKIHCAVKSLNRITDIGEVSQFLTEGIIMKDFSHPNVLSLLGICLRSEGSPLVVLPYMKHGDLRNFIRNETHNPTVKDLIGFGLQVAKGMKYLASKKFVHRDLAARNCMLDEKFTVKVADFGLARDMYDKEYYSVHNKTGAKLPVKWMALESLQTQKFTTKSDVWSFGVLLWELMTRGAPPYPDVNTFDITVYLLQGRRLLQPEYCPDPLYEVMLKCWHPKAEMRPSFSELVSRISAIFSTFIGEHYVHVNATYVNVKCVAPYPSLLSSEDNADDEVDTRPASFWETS

phospho-MET ELISA EC50, A549 cells [1]: 0.32 nM
phospho-MET ELISA EMAX (% HGF activity), A549 cells [1]: 102%
phospho-MET ELISA EC50, MLP29 cells [2]: 0.21 nM
phospho-MET ELISA EMAX (% HGF activity), MLP29 cells [2]: 115%
scatter score 0-4, HPAF-II, 0.001 nM [3]: 0 score
scatter score 0-4, HPAF-II, 0.004 nM [3]: 1 score
scatter score 0-4, HPAF-II, 0.012 nM [3]: 2 score
scatter score 0-4, HPAF-II, 0.037 nM [3]: 3 score
scatter score 0-4, HPAF-II, 0.111 nM [3]: 4 score
scatter score 0-4, HPAF-II, 0.333 nM [3]: 4 score
scatter score 0-4, HPAF-II, 1.000 nM [3]: 4 score
scatter score 0-4, HPAF-II, 3.000 nM [3]: 4 score
scatter score 0-4, HPAF-II, 9.000 nM [3]: 4 score
scatter score 0-4, MLP29, 0.001 nM [4]: 0 score
scatter score 0-4, MLP29, 0.004 nM [4]: 1 score
scatter score 0-4, MLP29, 0.012 nM [4]: 2 score
scatter score 0-4, MLP29, 0.037 nM [4]: 3 score
scatter score 0-4, MLP29, 0.111 nM [4]: 4 score
scatter score 0-4, MLP29, 0.333 nM [4]: 4 score
scatter score 0-4, MLP29, 1.000 nM [4]: 4 score
scatter score 0-4, MLP29, 3.000 nM [4]: 4 score
scatter score 0-4, MLP29, 9.000 nM [4]: 4 score
branches per spheroid, LOC cells, 0.5 nM [7]: 29 branches
branches per spheroid, LOC cells, 2.5 nM [7]: 29 branches
branches per spheroid, LOC cells, 12.5 nM [7]: 32.7 branches
branches per spheroid, MLP29 cells, 0.5 nM [8]: 32.7 branches
branches per spheroid, MLP29 cells, 2.5 nM [8]: 39 branches
branches per spheroid, MLP29 cells, 12.5 nM [8]: 41.3 branches
EC50 [9]: 0.259 nM
EMAX [9]: 113 % relative to control
EC50 [10]: 0.383 nM
EMAX [10]: 121 % relative to control
% binding (EMAX) compared to WT MET [11]: 103 % WT MET ECD
% binding (EMAX) compared to WT MET [12]: 128 % WT MET ECD
% binding (EMAX) compared to WT MET [13]: 43.6 % WT MET ECD
% binding (EMAX) compared to WT MET [14]: 38.6 % WT MET ECD
EC50 [15]: 0.026 nM
EMAX (OD450) [15]: 2.08 AU
EC50 [16]: 0.049 nM
EMAX (OD450) [16]: 2.01 AU
% binding (EMAX) compared to WT MET [17]: 100 % WT MET ECD
IC50 [18]: 0.29 nM
IMAX [18]: 98.3%
IC50 [19]: 0.34 nM
IMAX [19]: 90.5%
B1: 71D6 chimeric llama-human IgG1 mAb (antibody, V domains shown)
VH: ELQLVESGGGLVQPGGSLRLSCAASGFTFSSYGMSWVRQAPGKGLEWVSAINSYGGSTSYADSVKGRFTISRDNAKNTLYLQMNSLKPEDTAVYYCAKEVRADLSRYNDYESYDYWGQGTQVTVSS
VL: QPVLNQPSALSVTLGQTAKITCQGGSLGARYAHWYQQKPGQAPVLVIYDDDSRPSGIPERFSGSSSGGTATLTISGAQAEDEGDYYCQSADSSGSVFGGGTHLTVL
notes: llama VH on human IgG1 CH1-CH2-CH3, llama VL on human lambda CL
protection from staurosporine, viability EC50, MCF10A cells [5]: 1.48 nM
protection from staurosporine, viability EMAX, MCF10A cells [5]: 66.8%
protection from staurosporine, viability EC50, MLP29 cells [6]: 0.95 nM
protection from staurosporine, viability EMAX, MLP29 cells [6]: 68.3%

phospho-MET ELISA EC50, A549 cells [1]: 0.35 nM
phospho-MET ELISA EMAX (% HGF activity), A549 cells [1]: 86.2%
phospho-MET ELISA EC50, MLP29 cells [2]: 0.33 nM
phospho-MET ELISA EMAX (% HGF activity), MLP29 cells [2]: 98.8%
scatter score 0-4, HPAF-II, 0.001 nM [3]: 0 score
scatter score 0-4, HPAF-II, 0.004 nM [3]: 0 score
scatter score 0-4, HPAF-II, 0.012 nM [3]: 0 score
scatter score 0-4, HPAF-II, 0.037 nM [3]: 0 score
scatter score 0-4, HPAF-II, 0.111 nM [3]: 1 score
scatter score 0-4, HPAF-II, 0.333 nM [3]: 2 score
scatter score 0-4, HPAF-II, 1.000 nM [3]: 3 score
scatter score 0-4, HPAF-II, 3.000 nM [3]: 4 score
scatter score 0-4, HPAF-II, 9.000 nM [3]: 4 score
scatter score 0-4, MLP29, 0.001 nM [4]: 0 score
scatter score 0-4, MLP29, 0.004 nM [4]: 0 score
scatter score 0-4, MLP29, 0.012 nM [4]: 0 score
scatter score 0-4, MLP29, 0.037 nM [4]: 0 score
scatter score 0-4, MLP29, 0.111 nM [4]: 1 score
scatter score 0-4, MLP29, 0.333 nM [4]: 2 score
scatter score 0-4, MLP29, 1.000 nM [4]: 3 score
scatter score 0-4, MLP29, 3.000 nM [4]: 4 score
scatter score 0-4, MLP29, 9.000 nM [4]: 4 score
branches per spheroid, LOC cells, 0.5 nM [7]: 8.7 branches
branches per spheroid, LOC cells, 2.5 nM [7]: 12.7 branches
branches per spheroid, LOC cells, 12.5 nM [7]: 15.7 branches
branches per spheroid, MLP29 cells, 0.5 nM [8]: 11.7 branches
branches per spheroid, MLP29 cells, 2.5 nM [8]: 15.7 branches
branches per spheroid, MLP29 cells, 12.5 nM [8]: 24.7 branches
EC50 [9]: 0.572 nM
EMAX [9]: 106 % relative to control
EC50 [10]: 0.585 nM
EMAX [10]: 115 % relative to control
% binding (EMAX) compared to WT MET [11]: 99.8 % WT MET ECD
% binding (EMAX) compared to WT MET [12]: 102 % WT MET ECD
% binding (EMAX) compared to WT MET [13]: 59.6 % WT MET ECD
% binding (EMAX) compared to WT MET [14]: 61.6 % WT MET ECD
EC50 [15]: 0.203 nM
EMAX (OD450) [15]: 2.46 AU
EC50 [16]: 0.293 nM
EMAX (OD450) [16]: 2.24 AU
% binding (EMAX) compared to WT MET [17]: 100 % WT MET ECD
IC50 [18]: 1.42 nM
IMAX [18]: 93.6%
IC50 [19]: 1.56 nM
IMAX [19]: 89.2%
B2: 71C3 chimeric llama-human IgG1 mAb (antibody, V domains shown)
VH: QLQLVESGGGLVQPGGSLRLSCAASGFTFSSHAMSWVRQAPGKGLEWVSAINSGGGSTSYADSVKGRFTISRDNAKNTLYLQMNSLKPEDTAVYYCAKELRFDLARYTDYEAWDYWGQGTQVTVSS
VL: SYELTQPSALSVTLGQTAKITCQGGSLGSSYAHWYQQKPGQAPVLVIYDDDSRPSGIPERFSGSSSGGTATLTISGAQAEDEGDYYCQSADSSGNAAVFGGGTHLTVL
notes: as for B1
protection from staurosporine, viability EC50, MCF10A cells [5]: 31.9 nM
protection from staurosporine, viability EMAX, MCF10A cells [5]: 50.2%
protection from staurosporine, viability EC50, MLP29 cells [6]: 31 nM
protection from staurosporine, viability EMAX, MLP29 cells [6]: 51.3%
